Target: the molecule itself
Assay: crystal structure

B1: PsoE (enzyme, A. fumigatus)
chain: MVFGTLYTFPGDQCRTIAIKAVAKANGLDLDIRETPRTPDHLSISKLGKVPAFQGADSFKLFECMAIALYITSQNEQTTLLGKDKKEYAEIIKWMSFFNTEIVILMTQQLLPQLGVIPYDRDQVEFFANMTQRSVDVVEEYLQDRTFLVGDQLSLADLFCAGNISLGFQFFYGKAWRQQNPNVSRWYEMVCHQPIYAAVTDKFQLLDEPKLTNNPPEKKPETVPKNGAAVAIEATQA
stoichiometry N: 2

— publication PMC5089960 (Angewandte Chemie (International ed. in English), 2016)
